# In patent publication US20200055896:
# B1: N-terminal octa-His-tagged mouse FAP protein containing the extracellular domain (residues L26-D761) (protein)
# chain: LRPSRVYKPEGNTKRALTLKDILNGTFSYKTYFPNWISEQEYLHQSEDDNIVFYNIETRESYIILSNSTMKSVNATDYGLSPDRQFVYLESDYSKLWRYSYTATYYIYDLQNGEFVRGYELPRPIQYLCWSPVGSKLAYVYQNNIYLKQRPGDPPFQITYTGRENRIFNGIPDWVYEEEMLATKYALWWSPDGKFLAYVEFNDSDIPIIAYSYYGDGQYPRTINIPYPKAGAKNPVVRVFIVDTTYPHHVGPMEVPVPEMIASSDYYFSWLTWVSSERVCLQWLKRVQNVSVLSICDFREDWHAWECPKNQEHVEESRTGWAGGFFVSTPAFSQDATSYYKIFSDKDGYKHIHYIKDTVENAIQITSGKWEAIYIFRVTQDSLFYSSNEFEGYPGRRNIYRISIGNSPPSKKCVTCHLRKERCQYYTASFSYKAKYYALVCYGPGLPISTLHDGRTDQEIQVLEENKELENSLRNIQLPKVEIKKLKDGGLTFWYKMILPPQFDRSKKYPLLIQVYGGPCSQSVKSVFAVNWITYLASKEGIVIALVDGRGTAFQGDKFLHAVYRKLGVYEVEDQLTAVRKFIEMGFIDEERIAIWGWSYGGYVSSLALASGTGLFKCGIAVAPVSSWEYYASIYSERFMGLPTKDDNLEHYKNSTVMARAEYFRNVDYLLIHGTADDNVHFQNSAQIAKALVNAQVDFQAMWYSDQNHGISSGRSQNHLYTHMTHFLKQCFSLSD
# B2: Human prolyl oligopeptidase (PREP, 4308-SE) (protein)
# chain: MLSLQYPDVYRDETAVQDYHGHKICDPYAWLEDPDSEQTKAFVEAQNKITVPFLEQCPIRGLYKERMTELYDYPKYSCHFKKGKRYFYFYNTGLQNQRVLYVQDSLEGEARVFLDPNILSDDGTVALRGYAFSEDGEYFAYGLSASGSDWVTIKFMKVDGAKELPDVLERVKFSCMAWTHDGKGMFYNSYPQQDGKSDGTETSTNLHQKLYYHVLGTDQSEDILCAEFPDEPKWMGGAELSDDGRYVLLSIREGCDPVNRLWYCDLQQESSGIAGILKWVKLIDNFEGEYDYVTNEGTVFTFKTNRQSPNYRVINIDFRDPEESKWKVLVPEHEKDVLEWIACVRSNFLVLCYLHDVKNILQLHDLTTGALLKTFPLDVGSIVGYSGQKKDTEIFYQFTSFLSPGIIYHCDLTKEELEPRVFREVTVKGIDASDYQTVQIFYPSKDGTKIPMFIVHKKGIKLDGSHPAFLYGYGGFNISITPNYSVSRLIFVRHMGGILAVANIRGGGEYGETWHKGGILANKQNCFDDFQCAAEYLIKEGYTSPKRLTINGGSNGGLLVAACANQRPDLFGCVIAQVGVMDMLKFHKYTIGHAWTTDYGCSDSKQHFEWLVKYSPLHNVKLPEADDIQYPSMLLLTADHDDRVVPLHSLKFIATLQYIVGRSRKQSNPLLIHVDTKAGHGAGKPTAKVIEEVSDMFAFIARCLNVDWIP
# B3: FAP in mouse plasma (protein)
# chain: IVLRPSRVYKPEGNTKRALTLKDILNGTFSYKTYFPNWISEQEYLHQSEDDNIVFYNIETRESYIILSNSTMKSVNATDYGLSPDRQFVYLESDYSKLWRYSYTATYYIYDLQNGEFVRGYELPRPIQYLCWSPVGSKLAYVYQNNIYLKQRPGDPPFQITYTGRENRIFNGIPDWVYEEEMLATKYALWWSPDGKFLAYVEFNDSDIPIIAYSYYGDGQYPRTINIPYPKAGAKNPVVRVFIVDTTYPHHVGPMEVPVPEMIASSDYYFSWLTWVSSERVCLQWLKRVQNVSVLSICDFREDWHAWECPKNQEHVEESRTGWAGGFFVSTPAFSQDATSYYKIFSDKDGYKHIHYIKDTVENAIQITSGKWEAIYIFRVTQDSLFYSSNEFEGYPGRRNIYRISIGNSPPSKKCVTCHLRKERCQYYTASFSYKAKYYALVCYGPGLPISTLHDGRTDQEIQVLEENKELENSLRNIQLPKVEIKKLKDGGLTFWYKMILPPQFDRSKKYPLLIQVYGGPCSQSVKSVFAVNWITYLASKEGIVIALVDGRGTAFQGDKFLHAVYRKLGVYEVEDQLTAVRKFIEMGFIDEERIAIWGWSYGGYVSSLALASGTGLFKCGIAVAPVSSWEYYASIYSERFMGLPTKDDNLEHYKNSTVMARAEYFRNVDYLLIHGTADDNVHFQNSAQIAKALVNAQVDFQAMWYSDQNHGISSGRSQNHLYTHMTHFLKQCFSLSD
# Legend:
# [1] = molecular target: T1, GP probe: fluorescence-quenched peptide of the region flanking the C-terminal human FGF21 cleavage site (VGPSQG)
# T1 chain: VGPSQGK
# [2] = molecular target: EP probe: fluorescence-quenched peptide of the homologous region of murine FGF21
# [3] = molecular target: ANPFAP, internally-quenched FRET peptide substrate for FAP (Li et al. 2012)
protein,measurement,setting,value
B1,catalytic efficiency (Michaelis-Menten kinetics),[1],"mouse FAP exhibited a lower catalytic efficiency than human FAP, mainly due to a reduced kcat"
same,cleavage of fluorescence-quenched peptide (FRET-quench assay),[1],purified recombinant mouse FAP protein cleaved the GP but not GG or EP probes
same,cleavage of fluorescence-quenched peptide (FRET-quench assay),[2],purified recombinant mouse FAP protein cleaved the GP but not GG or EP probes
B2,"cleavage of quenched-FRET peptide, 10 nM enzyme",[3],both FAP and PREP efficiently cleave ANPFAP in vitro
same,"cleavage of fluorescence-quenched peptide (FRET-quench assay), 1 nM enzyme",[1],both enzymes readily cleaved the GP peptide
B3,"cleavage of the GP probe in mouse plasma, with cpd60 and KYP-2047",[1],FAP is the major enzyme responsible for the cleavage of the GP probe in plasma
